This series is described as follows: yeast display, Sf9 membrane polyspecificity reagent, FACS + sequencing; frameworks hold sequencing errors. In a few lines:
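A synthetic nanobody library was expressed on Saccharomyces cerevisiae BJ5465 by galactose induction for 36–48 hours. The library was stained for 1 hour at 4 °C with 10% biotinylated, detergent-solubilized Sf9 membrane reagent and enriched with streptavidin microbeads before FACS. Low and high (top ~1%) gates were set on anti-HA fluorescence for expression and streptavidin fluorescence for reagent binding, and each polyreactivity label reflects the gate of origin.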
On to “QVQLVESGGGLVQAGGSLRLSCAASGIIQVYNTMGWYRQAPGKERELVAAINYSGGSTNYADSVKGRFTISRDNAKNTVYFQMNSLKPEDTAVYYCNARYGGFNVPYLRYEHWGQGTQVTVSS”, for which the “polyreactivity (PSR sort gate)” value is given as “low polyreactivity”.

Take “QVQLVESGGGLVQAGGSLRLSCAASGIISGDYAMGWYRQAPGKERELVARITSGDSTNYADSVKGRFTISRDNAKNTVYLQMNSLKPEDTAVYYCAADRVWAYWTYGYWGQGTQVTVSS”: the “polyreactivity (PSR sort gate)” value is “low polyreactivity”.

With “QVQLVESGGGLVQAGGSLRLSCAASGIIYGNVMGWYRQAPGKESELVAAITGSGGSTYYADSVKGRFTISRDNAKNTVYLQMNSLKPEDTAVYYCAADLALYNTLYLTLPDYYWGEGTQVTVSS”, the “polyreactivity (PSR sort gate)” value is on record as “low polyreactivity”.

With “QVQLVESGGGLVQAGGSLRLSCAASGIIYYGYAMGWYRQAPGKERELVAAISRSGGSTYYADSVKGRFTISRDNAKNTVYLQMNSLKPEDTAVYYCAASGVTYDYWGQGTQVTVSS”, the “polyreactivity (PSR sort gate)” value is given as “high polyreactivity”.

Turning to “QVQLVESGGGLVQAGGSLRLSCAASGIIYYGYVMGWYRQAPGKERELVATITSSGGSKYYADSVKGRFTISRDNAKNTVYLQMNSLKPEDTAVYYCAADYYYGAWVRHDYWGQCTQVTVSS”, the “polyreactivity (PSR sort gate)” value is listed as “low polyreactivity”.

As to “QVQLVESGGGLVQAGGSLRLSCAASGILLFNAMGWYRQAHGKERELVAAINSGGSTNYADSVKGRFPISRDNAKNTGYLQMNSLKPEDTAVYYCAKDTPFTLRVWAEGGMDYWGQGTQVTVSS”, the “polyreactivity (PSR sort gate)” value was “low polyreactivity”.

Consider “QVQLVESGGGLVQAGGSLRLSCAASGIMFSSYAMLWYRQAPGKERELFAAISWSGGSTYYADSVKLRFTISRDNAKNTVYLQMNSLKPEDTAVYYCAAKSHWYKRGYWGQGTQVTVSS”, for which the “polyreactivity (PSR sort gate)” value is reported as “low polyreactivity”.

On to “QVQLVESGGGLVQAGGSLRLSCAASGINFESYVMGWYRQAPGKERELVARISYSGGSTYYADSVKGRFTISRDNAKNTVYLQMNSLIPEDTAVYYCNARYLFSGRYSRRMEYWGQGTQVTVSS”, for which the “polyreactivity (PSR sort gate)” value is “high polyreactivity”.

For the sequence “QVQLVESGGGLVQAGGSLRLSCAASGINFFVYDMGWYRQAPGKERELVAAITWSGDSTYYADSVKGRFTISRDNAKNTVYLQINSLKPVDSAVYYCAAQFDVYYSRQPYDYNRSGYWGQGTQVTVSS”, the “polyreactivity (PSR sort gate)” value is “low polyreactivity”.

Turning to “QVQLVESGGGLVQAGGSLRLSCAASGINFGQNAMGWYRQAPGKERELVAAITISVGSTYYADSVKGRFTISRDNAKNTVYLQMNSLKPEDTAVYYCAARRVTWKVIARGYRYGYWGQGTQVTVTS”, the “polyreactivity (PSR sort gate)” value was “low polyreactivity”.

“QVQLVESGGGLVQAGGSLRLSCAASGINFGYYTMGWYRQAPGKDREFVAAITANGGRTYYADSVKGRFTLSRDNAKNTVYLKMNSLKPEDTAVYYCNARTYTYRGSFDYWVQGTQVTVSS”: the “polyreactivity (PSR sort gate)” value is on record as “high polyreactivity”.

In the case of “QVQLVESGGGLVQAGGSLRLSCAASGINFNYYVMGWYRQAPGKERELVAAISRSGGRTRYADSVKGRFTISRDNAKNTVYLQMNSLKPEDTAVYYCAAVGSVNYDADFDYWGQGTQVTVSS”, the “polyreactivity (PSR sort gate)” value is “high polyreactivity”.

For “QVQLVESGGGLVQAGGSLRLSCAASGINFRGYAMGWYRQAPGKERELVASITNTDSTYYADSVKGRFTISRDNAKNTVYLQMNSLKPEDTAVYYCAARRGRKYGYWGQGTQVTVSS”, the “polyreactivity (PSR sort gate)” value is on record as “high polyreactivity”.

Consider “QVQLVESGGGLVQAGGSLRLSCAASGINFTSYAMGWYRQAPGKERELVAAISSSGVRTYYADSVKGRFTISRDNAKNTVYLQMNSQKPEDTAVYYCATRRRVLYGYDYWGQGTQVTVSS”, for which the “polyreactivity (PSR sort gate)” value is given as “high polyreactivity”.

“QVQLVESGGGLVQAGGSLRLSCAASGINISWYAMGLYRQAPGKERELVAAISRRGGRTYYADSVKGRFTSSRDNAKNTVYLEMKSMLPEDTAVYYCAVVERQVPGPADGSVQVYYYWGQGTQVTGSS”: the “polyreactivity (PSR sort gate)” value is listed as “high polyreactivity”.

For the sequence “QVQLVESGGGLVQAGGSLRLSCAASGIPFYVKDMGWYRQAPGKDWDCVAAISYRGGSTYYADSVKGRFTISRDNAKNTVYLQMNSLKPEDTAVYYCAADYNYWSPHRDDYWGQGTQVTVSS”, the “polyreactivity (PSR sort gate)” value is reported as “low polyreactivity”.

On to “QVQLVESGGGLVQAGGSLRLSCAASGISFERNGMGWYRQATGKERELVAAIRSGGSTYYADSVKGRFTISRDNAKNRVYVQMHSLKPEETAVYYCAAVTQGGYTDLGDYWGQGTQVTVSS”, for which the “polyreactivity (PSR sort gate)” value is on record as “low polyreactivity”.

As for “QVQLVESGGGLVQAGGSLRLSCAASGISFGVYSLGWYRQAPGKERELVAAISSSGTSTYYADSVKGRFTISRDNAKNTVYLQMNSLKPEDTAVYYCAADYKRNQEVDYWGQGTQVTVSS”, the “polyreactivity (PSR sort gate)” value is reported as “high polyreactivity”.

“QVQLVESGGGLVQAGGSLRLSCAASGITFAAYAMGWYRQAPGKERELVAAISTSGDSTYYADSVKGRFTISRDNAKNTVYLQMNSLKPEDTAVYYCAARAVRLSSSKVDYWGQGTQVTVSS”: the “polyreactivity (PSR sort gate)” value was “high polyreactivity”.

For “QVQLVESGGGLVQAGGSLRLSCAASGITFAHYAMGWYRQAPGKERELVAVITSGGSTYYADSVKGRFTISRDNAKNTVYLQMNSLKPEDTAVYYCNRVPRRSIRYDYWGQGTQVTVSS”, the “polyreactivity (PSR sort gate)” value is listed as “high polyreactivity”.

For “QVQLVESGGGLVQAGGSLRLSCAASGITFAKYAMGWYRQAPGKESELVAAISSSGGRTYYADSVKGRFTISRDNAKNTVYLQMNSLKPEDTAVYYCAADFSGPFDYWGLGTQVTVSS”, the “polyreactivity (PSR sort gate)” value is listed as “high polyreactivity”.

As to “QVQLVESGGGLVQAGGSLRLSCAASGITFALYAMGWYRQAPGKERELVAAISYSGGRTYYADSVKGRFTISRDNAKNTVYLQMNSLKPEDTAVYYCAAGGSGSGPYGYGYWGQGTQVTVSS”, the “polyreactivity (PSR sort gate)” value was “high polyreactivity”.

As for “QVQLVESGGGLVQAGGSLRLSCAASGITFAYNAMGSYRQAPGKERELVARITSGGRTYYADSVKGRFTISRDNAKNTVYLQMNSLKPEDTAVYYCNAKEGSRYRKYDYWGQGTQVTVSS”, the “polyreactivity (PSR sort gate)” value was “low polyreactivity”.

“QVQLVESGGGLVQAGGSLRLSCAASGITFAYYVMGWYRQAPGKERELVAAINWSGGSTYYADSVKGRFTISRDNAKNTVYLQMNSLKPEDTAVYYCAADWSTWYGEKFYWGHGTQVTVSS”: the “polyreactivity (PSR sort gate)” value was “high polyreactivity”.

As to “QVQLVESGGGLVQAGGSLRLSCAASGITFDENTMGWYRQATGKERELVASISNGGNTYYADSVKGRFTISRDNAKNTVYLQMNSLKPEDSAVYYCAARYGYYYSRYDHWGQGTQVTVSS”, the “polyreactivity (PSR sort gate)” value is “low polyreactivity”.

Consider “QVQLVESGGGLVQAGGSLRLSCAASGITFDEYAMGWYIQAPGKERELVASISAGSTYYADSVKGRFTISRDNAKNTVYLQMNSLKPEDTAVYYCAVVVDYDAYRYWGYDYWGQGTQVTVSS”, for which the “polyreactivity (PSR sort gate)” value is recorded as “high polyreactivity”.

“QVQLVESGGGLVQAGGSLRLSCAASGITFDHYVMGWYRQAPGKERELVAAISRRGGSTYYADSVKGRFTISRDNAKNTVYLQMNSLKPEDTAVYYCAADSSKHIGYDSWGQGTQVTVSS”: the “polyreactivity (PSR sort gate)” value is recorded as “high polyreactivity”.

Regarding “QVQLVESGGGLVQAGGSLRLSCAASGITFDNNAMGWYRQAPGKEREFVADIDGSGGSTYYADSVKGRFTISRDNAKNTVYLLMNCLKPEDTAVYYCAVVVYYYTYHYWGQGTQVTVSS”, the “polyreactivity (PSR sort gate)” value is “low polyreactivity”.

Consider “QVQLVESGGGLVQAGGSLRLSCAASGITFDSYAMGWYRQAPGKERELVATISRSGTTTYYADSVKGRFTISRDNAKNTGYLQMNSLKPEDTAVYYCNTLRDYWTYHFYGAVRDGYDYWGQGTQVTVSS”, for which the “polyreactivity (PSR sort gate)” value is reported as “low polyreactivity”.

For the sequence “QVQLVESGGGLVQAGGSLRLSCAASGITFDYYTMGWYRQAPGKERELVAGITRGGRTYYADSVKGRFTISRDNAKNTVYLQMNSLKPEDTAVYYCNADPWWRFDYWGQGTQVTVSS”, the “polyreactivity (PSR sort gate)” value was “low polyreactivity”.

These data come from the nanobody polyreactivity screen of Harvey et al. (2022).
